This note sets out measurements from patent US20190135932A1 (Pfizer, published 2019).

Values joined by “and” are separate entries in the source; they are usually repeats but may differ in a detail not shown here. Equal entries are not always repeated.

The target of experiment [1] is T1, rat OX40R on activated rat T cells (rat, UniProt P15725 20-271).
T1 construct: whole, on cells; also called rat cells
T1 sequence (looked up): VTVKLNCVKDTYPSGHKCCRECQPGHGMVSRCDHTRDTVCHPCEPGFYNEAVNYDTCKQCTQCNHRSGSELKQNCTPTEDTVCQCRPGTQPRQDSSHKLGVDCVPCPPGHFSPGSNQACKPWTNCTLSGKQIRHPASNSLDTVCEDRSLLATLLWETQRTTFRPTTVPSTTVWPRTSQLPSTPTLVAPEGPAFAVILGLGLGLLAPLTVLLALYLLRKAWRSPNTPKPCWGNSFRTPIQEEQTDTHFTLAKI
Kind of experiment: FACS, Alexa Fluor 647 conjugated antibody on activated T cells. The protocol:
(§1) Rat whole blood collected in heparinized syringes was diluted 1:3 in warm HBSS. Next, 5 mls was carefully layered over an equal volume of Lympholyte-Rat (Cedarlane Laboratories, Westbury, N.Y.). The tubes were centrifuged for 20 minutes at 1500 RPM. The PBMCs interface was collected, washed twice and the cell pellet was re-adjusted to 2×10⁶/ml in TCM. Two mls of cells were added to each well of a 24 well plate and stimulated for 24-48 hours with PHA (Remel, Lenexa, Kans.) at 10 ng/ml prior to flow cytometry staining.
(§2) Stimulated mouse, rat, rabbit, dog and cynomolgus PBMCs and the 300-19 cell line expressing the cynomolgus OX40 receptor were used to test for human OX40 antibody species cross-reactivity. Human OX40 expressing activated T lymphocytes and OX40 transduced 300-19 cells were used as positive controls. Cells (5.0×10⁵/tube) were washed once in cold wash buffer (PBS, 2% FBS and 0.02% sodium azide) and 100 μl/tube of Alexa Fluor 647 conjugated control or OX40 reactive antibodies at 5 ug/ml was added to each tube. The antibodies were labeled using an Alex Fluor 647 protein labeling kit as described by the manufacturer (Molecular Probes, Eugene, Oreg.). […] Antibody staining was measured and analyzed using a Becton Dickinson FACSCalibur and CellQuest software (San Jose, Calif.).

For experiment [2], the target named is T2, mouse OX40R on activated mouse T cells (mouse, UniProt P47741 20-272).
T2 construct: whole, on cells; also called mouse cells; murine OX40R
T2 sequence (looked up): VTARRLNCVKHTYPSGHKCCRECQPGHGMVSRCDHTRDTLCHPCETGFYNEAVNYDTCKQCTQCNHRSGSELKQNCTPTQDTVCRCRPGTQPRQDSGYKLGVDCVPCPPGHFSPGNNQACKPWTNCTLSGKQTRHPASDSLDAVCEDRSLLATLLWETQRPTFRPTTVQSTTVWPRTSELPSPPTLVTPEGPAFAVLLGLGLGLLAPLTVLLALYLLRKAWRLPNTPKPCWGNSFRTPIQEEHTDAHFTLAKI
The description is as above. The method, then: as §1, §2

In experiment [3] the target is T3, OX40R extracellular and transmembrane domain fused to the intracellular domain of CD40, in 293 cells with an … (UniProt P43489 29-235; P25942 216-277, limits assumed).
T3 sequence (looked up): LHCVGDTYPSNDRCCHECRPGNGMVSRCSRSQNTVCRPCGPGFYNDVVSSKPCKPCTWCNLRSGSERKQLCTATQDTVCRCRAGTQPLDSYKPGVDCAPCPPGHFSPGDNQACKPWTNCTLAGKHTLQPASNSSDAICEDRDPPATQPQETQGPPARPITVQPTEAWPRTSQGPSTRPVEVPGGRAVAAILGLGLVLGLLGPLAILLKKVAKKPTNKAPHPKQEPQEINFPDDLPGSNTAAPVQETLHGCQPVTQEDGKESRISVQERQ
Kind of experiment: cell-based or functional assay.

Experiment [4] concerns the target cynomolgus OX40R on activated cynomolgus monkey T cells / PBMCs (cynomolgus monkey). The experiment is described as follows: cell-based or functional assay.
In experiment [5] the target is T4, recombinant human OX40-CD40 fusion construct (amino acids 1-235 of OX40, 216-278 of CD40) expressed on 300-19 … (human, UniProt P43489 29-235; P25942 216-277).
T4 construct: range 1-235;range 216-278; also called OX40R+ 300-19 cells; OX40R transfected cells
T4 sequence (looked up): T3 sequence (looked up)
Kind of experiment: FACS saturation binding on OX40R+ 300-19 cells (N = 2). The method, then: OX40R-expressing cell lines (see below) or activated primary peripheral blood mononuclear cells (see below) were used to assess binding on both the human and cynomolgus OX40 receptors. Cells were harvested and washed (5×10⁵/tube) using wash buffer at RT°. The wash buffer consisted of PBS, 2% heat-inactivated fetal bovine serum (Hyclone, Logan, Utah) and 0.02% sodium azide (Sigma, St. Louis, Mo.). Next, 100 μl of various concentrations of antibody was added to the cells (starting at 30 ug/ml and using a 3-fold titration) diluted in wash buffer containing 0.005 mg/ml of cytocholasin B (Sigma, St. Louis, Mo.). The cells were gently rocked at RT° for 3 hours. Next, the cells were washed twice and resuspended in 0.5 ml/tube with cold wash buffer and 10,000 events were collected and analyzed using a Becton Dickinson FACSCalibur and CellQuest software (San Jose, Calif.).

Experiment [6] addresses T5, human OX40R on activated primary human T cells (human, UniProt P43489 29-277).
T5 sequence (looked up): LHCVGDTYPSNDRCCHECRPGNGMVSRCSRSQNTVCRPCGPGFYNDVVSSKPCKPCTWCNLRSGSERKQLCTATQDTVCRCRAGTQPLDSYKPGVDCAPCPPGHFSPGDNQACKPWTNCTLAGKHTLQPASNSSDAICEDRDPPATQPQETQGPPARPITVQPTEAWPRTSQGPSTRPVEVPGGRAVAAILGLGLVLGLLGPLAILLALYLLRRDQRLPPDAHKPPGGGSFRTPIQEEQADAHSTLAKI
The experiment is described as follows: cell-based or functional assay.

The target in experiment [7] is T5, human OX40R on activated primary human …. The experiment is described as follows: cell-based or functional assay. This is another data set of the same source.

B1: human monoclonal antibody 11D4 (antibody, V domains shown)
VH: EVQLVESGGGLVQPGGSLRLSCAASGFTFSSYSMNWVRQAPGKGLEWVSYISSSSSTIDYADSVKGRFTISRDNAKNSLYLQMNSLRDEDTAVYYCARESGWYLFDYWGQGTLVTVSS
VL: DIQMTQSPSSLSASVGDRVTITCRASQGISSWLAWYQQKPEKAPKSLIYAASSLQSGVPSRFSGSGSGTDFTLTISSLQPEDFATYYCQQYNSYPPTFGGGTKVEIKR
notes: IgG2 heavy chain, kappa light chain; allotypes G2(n-) and Km3; Alexa Fluor 647 conjugate was used in the species cross-reactivity FACS
Turning to B1, the binding result in experiment [1] is reported as “no binding (tested: 5 ug/ml)”. The binding result in experiment [2] is given as “no binding (tested: 5 ug/ml)”. For the same molecule, the “In vitro stimulation of OX40R+ transfected cells (luciferase) (EC50; N = 4)” value in experiment [3] was 0.33 µg/ml and 2.2 nM. Besides, in experiment [4], the “EC50 of anti-CD3 induced IL-2 production by cynomolgus T cells, donor 2325” value turned out to be 0.002 µg/mL; the “EC50 of anti-CD3 induced IL-2 production by cynomolgus T cells, donor 32081” value was 0.007 µg/mL; the “EC50 of anti-CD3 induced IL-2 production by cynomolgus T cells, donor 32750” value stood at 0.007 µg/mL; the “EC50 of anti-CD3 induced IL-2 production by cynomolgus T cells, donor 32842” value amounted to 0.011 µg/mL. Moreover, in experiment [4], the “EC50 of anti-CD3 induced IL-2 production by cynomolgus T cells, donor 33062” value was 0.028 µg/mL; the “EC50 of anti-CD3 induced IL-2 production by cynomolgus T cells, donor 33080” value was found to be 0.031 µg/mL; the “EC50 of anti-CD3 induced IL-2 production by cynomolgus T cells, donor 33081” value turned out to be 0.008 µg/mL.

B2: human monoclonal antibody 18D8 (antibody, human IgG2, kappa, V domains shown)
VH: EVQLVESGGGLVQPGRSLRLSCAASGFTFDDYAMHWVRQAPGKGLEWVSGISWNSGSIGYADSVKGRFTISRDNAKNSLYLQMNSLRAEDTALYYCAKDQSTADYYFYYGMDVWGQGTTVTVSS
VL: EIVVTQSPATLSLSPGERATLSCRASQSVSSYLAWYQQKPGQAPRLLIYDASNRATGIPARFSGSGSGTDFTLTISSLEPEDFAVYYCQQRSNWPTFGQGTKVEIKR
As to B2, the EC50 in experiment [5] was 0.24 µg/mL and 1.66 nM. Also, in experiment [6], the “EC50 of anti-CD3 induced IL-2 production by primary human T cells, donor four” value came out at 0.024 µg/mL; the “EC50 of anti-CD3 induced IL-2 production by primary human T cells, donor one” value was 0.024 µg/mL; the “EC50 of anti-CD3 induced IL-2 production by primary human T cells, donor three” value is 0.013 µg/mL; the “EC50 of anti-CD3 induced IL-2 production by primary human T cells, donor two” value came to 0.135 µg/mL. In experiment [7], the “Augmentation of T Cell Activity (EC50): CD3 induced IL-2 production (N = 4)” value was 0.049 µg/ml and 0.33 nM; the “Augmentation of T Cell Activity (EC50): Stimulation of IL-2 production by antigen-primed cells (N = 1)” value was 0.014 µg/ml and 0.1 nM.

The EC50 is the midpoint of the concentration-response curve.
